We go through eleven molecules from patent US20220042033A1, “COMPOSITION AND METHOD FOR CONFERRING AND/OR ENHANCING TOLERANCE AGAINST HERBICIDES BY USING VARIANTS OF PPO” (FarmHannong Co., Ltd., priority 2017, published 2022).

B1: R140A + V213C + Y422I: ApPPO1 (SEQ ID NO: 1) variant (protein)
chain: MPFTHLKPLNRLLGSPRARHPHVAPQAVSVTNTSTTRPGGRSSAPGIPGDAEYDVVIVGAGISGLTTAQALAKQYSDAVPRLLVTEARDCVGGNIITRRDGGYQWEEGPNSFQPSDAVLRAAVDAGVADRLVLGDPKAPAYVYWGGRLRATPSGPDVLTFDLLSLWGKLRAGLGAAGFKAPLPEREESVKEFVTRNLGEEVFQRLIEPFCSGCYAGDPAKLSMKAAFGKVYDLEKGGGSIVGGVLALMKARKQKPPEPRPADLPPKPKGQTVGSFDKGLVTLPSAIAEELGDRVVTGWKLESIDRSGDRFQLTYDTPQGRKKVSARSVALTVPAYTAASLLESRFPKLGKALSSIYYPPVASVALSYPETAILPERLGSDGHLAGFGQLHPRTQGVTTLGTIYASSLFPGRVPEGKVLLLSIFGGATNTRVATMPHGEIVSQVDKDLRKMLIRSDAESPHTVNVTVWPRAIPQFNVGHTDLIQEAKDDLASQGWQGLHLGGNYVAGVALGKCMEAGYKQAAELASHVKSLAT
modifications: Synthetic (Protoporphyrinogen IX oxidase (ApPPO1) of Auxenochlorella protothecoides)
B2: R140A + V213C + A215C + Y422I: ApPPO1 (SEQ ID NO: 1) variant (protein)
chain: B1 chain with A215C
modifications: Synthetic (Protoporphyrinogen IX oxidase (ApPPO1) of Auxenochlorella protothecoides)
B3: R140A + A215C + Y422I: ApPPO1 (SEQ ID NO: 1) variant (protein)
chain: B1 chain with C213V, A215C
modifications: Synthetic (Protoporphyrinogen IX oxidase (ApPPO1) of Auxenochlorella protothecoides)
B4: V213C + Y422I: ApPPO1 (SEQ ID NO: 1) variant (protein)
chain: B1 chain with A140R
modifications: Synthetic (Protoporphyrinogen IX oxidase (ApPPO1) of Auxenochlorella protothecoides)
B5: R140A + A215L + Y422M: ApPPO1 (SEQ ID NO: 1) variant (protein)
chain: B1 chain with C213V, A215L, I422M
modifications: Synthetic (Protoporphyrinogen IX oxidase (ApPPO1) of Auxenochlorella protothecoides)
B6: V213C + A215L + Y422M: ApPPO1 (SEQ ID NO: 1) variant (protein)
chain: B1 chain with A140R, A215L, I422M
modifications: Synthetic (Protoporphyrinogen IX oxidase (ApPPO1) of Auxenochlorella protothecoides)
B7: R140A + V213C + Y422M: ApPPO1 (SEQ ID NO: 1) variant (protein)
chain: B1 chain with I422M
modifications: Synthetic (Protoporphyrinogen IX oxidase (ApPPO1) of Auxenochlorella protothecoides)
B8: R140A + Y422T: ApPPO1 (SEQ ID NO: 1) variant (protein)
chain: B1 chain with C213V, I422T
modifications: Synthetic (Protoporphyrinogen IX oxidase (ApPPO1) of Auxenochlorella protothecoides)
B9: R140A + Y422I: ApPPO1 (SEQ ID NO: 1) variant (protein)
chain: B1 chain with C213V
modifications: Synthetic (Protoporphyrinogen IX oxidase (ApPPO1) of Auxenochlorella protothecoides)
B10: R140A + V213C + A215L + Y422M: ApPPO1 (SEQ ID NO: 1) variant (protein)
chain: B1 chain with A215L, I422M
modifications: Synthetic (Protoporphyrinogen IX oxidase (ApPPO1) of Auxenochlorella protothecoides)
B11: V213C + A215C + Y422I: ApPPO1 (SEQ ID NO: 1) variant (protein)
chain: B1 chain with A140R, A215C
modifications: Synthetic (Protoporphyrinogen IX oxidase (ApPPO1) of Auxenochlorella protothecoides)

Residue numbers refer to the chain shown, from its start. Names may count otherwise.

For the first assay, the system named is ApPPO1. The assay is described as follows: Herbicide tolerance test of ApPPO1 wild type and variants in PPO-deficient E. coli BT3(ΔPPO), growth on herbicide-containing LB agar. The assay is classed as cell-based, Auxenochlorella protothecoides. Particulars: relative to ApPPO1 WT, dark, up to 100 μM (FIGS. 7-12). The method, then:
Then, the extent of tolerance was evaluated.
B1: the “Herbicide tolerance, flumioxazin” value is “+++++ (more than 10,000 fold higher tolerance)”.

On to B2, for which the “Herbicide tolerance, flumioxazin” value is “+++++ (more than 10,000 fold higher tolerance)”.

With B3, the “Herbicide tolerance, flumioxazin” value is reported as “+++++ (more than 10,000 fold higher tolerance)”.

For the molecule B4, the “Herbicide tolerance, flumioxazin” value is “+++++ (more than 10,000 fold higher tolerance)”.

Take B5: the “Herbicide tolerance, flumioxazin” value is recorded as “+++++ (more than 10,000 fold higher tolerance)”.

Take B6: the “Herbicide tolerance, flumioxazin” value is recorded as “+++++ (more than 10,000 fold higher tolerance)”.

Take B7: the “Herbicide tolerance, flumioxazin” value was “+++++ (more than 10,000 fold higher tolerance)”.

As for B8, the “Herbicide tolerance, flumioxazin” value was “++++ (1,000-9,999 fold higher tolerance)”.

With B9, the “Herbicide tolerance, flumioxazin” value was “+++++ (more than 10,000 fold higher tolerance)”.

Regarding B10, the “Herbicide tolerance, flumioxazin” value was “+++++ (more than 10,000 fold higher tolerance)”.

Regarding B11, the “Herbicide tolerance, flumioxazin” value is listed as “+++++ (more than 10,000 fold higher tolerance)”.

Still in this assay, the particulars now being: relative to ApPPO1 WT, dark, up to 200 μM (FIGS. 7-12).
Take B1: the “Herbicide tolerance, tiafenacil” value is on record as “+++++ (more than 10,000 fold higher tolerance)”.

On to B2, for which the “Herbicide tolerance, tiafenacil” value was “+++++ (more than 10,000 fold higher tolerance)”.

Take B3: the “Herbicide tolerance, tiafenacil” value was “+++++ (more than 10,000 fold higher tolerance)”.

B4: the “Herbicide tolerance, tiafenacil” value is given as “++++ (1,000-9,999 fold higher tolerance)”.

Turning to B5, the “Herbicide tolerance, tiafenacil” value is “+++++ (more than 10,000 fold higher tolerance)”.

Consider B6, for which the “Herbicide tolerance, tiafenacil” value is “+++++ (more than 10,000 fold higher tolerance)”.

For B7, the “Herbicide tolerance, tiafenacil” value is “+++++ (more than 10,000 fold higher tolerance)”.

On to B8, for which the “Herbicide tolerance, tiafenacil” value is given as “++++ (1,000-9,999 fold higher tolerance)”.

For the molecule B9, the “Herbicide tolerance, tiafenacil” value is “+++++ (more than 10,000 fold higher tolerance)”.

On to B10, for which the “Herbicide tolerance, tiafenacil” value is “+++++ (more than 10,000 fold higher tolerance)”.

With B11, the “Herbicide tolerance, tiafenacil” value is recorded as “+++++ (more than 10,000 fold higher tolerance)”.

The assay is the same for the next values; noted with them: relative to ApPPO1 WT, dark, up to 400 μM (FIGS. 7-12).
Take B1: the “Herbicide tolerance, sulfentrazone” value is on record as “++++ (1,000-9,999 fold higher tolerance)”.

Regarding B2, the “Herbicide tolerance, sulfentrazone” value is “++++ (1,000-9,999 fold higher tolerance)”.

B3: the “Herbicide tolerance, sulfentrazone” value is on record as “++++ (1,000-9,999 fold higher tolerance)”.

Regarding B4, the “Herbicide tolerance, sulfentrazone” value was “+++ (100-999 fold higher tolerance)”.

In the case of B5, the “Herbicide tolerance, sulfentrazone” value is “++++ (1,000-9,999 fold higher tolerance)”.

As for B6, the “Herbicide tolerance, sulfentrazone” value is “++++ (1,000-9,999 fold higher tolerance)”.

As for B7, the “Herbicide tolerance, sulfentrazone” value is “++++ (1,000-9,999 fold higher tolerance)”.

Take B8: the “Herbicide tolerance, sulfentrazone” value is given as “+++ (100-999 fold higher tolerance)”.

As for B9, the “Herbicide tolerance, sulfentrazone” value is “++++ (1,000-9,999 fold higher tolerance)”.

With B10, the “Herbicide tolerance, sulfentrazone” value is on record as “++++ (1,000-9,999 fold higher tolerance)”.

For B11, the “Herbicide tolerance, sulfentrazone” value is reported as “++++ (1,000-9,999 fold higher tolerance)”.
